From patent US11166479B2, “Feedstuffs for aquaculture comprising stearidonic acid” (COMMONWEALTH SCIENTIFIC AND INDUSTRIAL RESEARCH ORGANISATION, priority 2005, dated 2021)

Tested on: yeast strain S288Cα
Assay: Heterologous expression of E. plantagineum Δ6-desaturase gene in yeast, conversion of fed fatty acids
Format: cell-based
Settings: 20° C., 2-3 days
Experimental: Expression experiments in yeast were carried out to confirm that the cloned E. platangineum gene (cDNA sequence provided as SEQ ID NO:25) encoded a Δ6-desaturase enzyme. The gene fragment was inserted as an XbaI-SacI fragment into the […] sites of the yeast expression vector pSOS (Stratagene) containing the constitutive ADH1 promoter, resulting in plasmid pXZP271. This was transformed into yeast strain S288Cα by a heat shock method and transformant colonies selected by plating on minimal media plates. For the analysis of enzyme activity, 2 mL yeast clonal cultures were grown to an O.D.600 of 1.0 in yeast minimal medium in the presence of 0.1% NP-40 at 30° C. with shaking. Precursor free-fatty acids, either linoleic or linolenic acid as 25 mM stocks in ethanol, were added so that the final concentration of fatty acid was 0.5 mM. The cultures were transferred to 20° C. and grown for 2-3 days with shaking. Yeast cells were harvested by repeated centrifugation and washing first with 0.1% NP-40, then 0.05% NP-40 and finally with water. Fatty acids were extracted and analyzed. The peak identities of fatty acids were confirmed by GC-MS.

B1: EplD6Des: Δ6 desaturase from Echium plantagineum, polypeptide of 438 amino acid residues, expressed in yeast from plasmid pXZP271 (protein, listed as Echium plantagineum)
chain: MANAIKKYITAEELKKHDKAGDLWISIQGKIYDVSDWLKDHPGGNFPLLSLAGQEVTDAFVAFHSGTTWKLLEKFFTGYYLKDYSVSEVSKDYRKLVFEFNKMGLFDKKGHIVLVTVLFIAMLFGMSVYGVLFCEGVLVHLLAGGLMGFVWIQSGWIGHDAGHYIVMPDARLNKLMGIVAANCLSGISIGWWKWNHNAHHIACNSLDYDPDLQYIPFLVVSSKLFSSLTSHFYEKKLTFDSLSRFFVSHQHWTFYPVMCMARVNMFVQSLIMLLTKRNVFYRSQELLGLVVFWIWYPLLVSCLPNWGERVMFVVASLSVTGMQQVQFSLNHFSSSVYVGQPKGNDWFEKQTCGTLDISCPSWMDWFHGGLQFQVEHHLFPKLPRCHLRKISPFVMELCKKHNLSYNCASFSEANNMTLRTLRDTALQARDLTKPLPKNLVWEALNTHG
LA converted to GLA (0.5 mM linoleic acid fed): Around 2.9%
ALA converted to SDA (0.5 mM linolenic acid fed): ~2.3%
